Patent US20040167319A1 (Genmab, published 2004)
*1 amine or outer side, *2 acyl side, *3 side chain or, on linkers, in order; H or OH if unused. Bridges are numbered along the chain shown (N, C = ends). Where no end group is shown, it is not given here. mXylylene = c1cc(C[*:1])cc(C[*:2])c1; minicard = not defined here

B1: 11B8 (antibody, IgG3, V domains shown)
VH: EVQLVQSGGGLVHPGGSLRLSCTGSGFTFSYHAMHWVRQAPGKGLEWVSIIGTGGVTYYADSVKGRFTISRDNVKNSLYLQMNSLRAEDMAVYYCARDYYGAGSFYDGLYGMDVWGQGTTVTVSS
VL: EIVLTQSPATLSLSPGERATLSCRASQSVSSYLAWYQQKPGQAPRLLIYDASNRATGIPARFSGSGSGTDFTLTISSLEPEDFAVYYCQQRSDWPLTFGGGTKVEIK
notes: Human monoclonal IgG3,κ from hybridoma
B2: 7D8 (antibody, IgG1, V domains shown)
VH: EVQLVESGGGLVQPDRSLRLSCAASGFTFHDYAMHWVRQAPGKGLEWVSTISWNSGTIGYADSVKGRFTISRDNAKNSLYLQMNSLRAEDTALYYCAKDIQYGNYYYGMDVWGQGTTVTVSS
VL: EIVLTQSPATLSLSPGERATLSCRASQSVSSYLAWYQQKPGQAPRLLIYDASNRATGIPARFSGSGSGTDFTLTISSLEPEDFAVYYCQQRSNWPITFGQGTRLEIK
notes: Human monoclonal IgG1,κ from hybridoma
B3: 2F2 (antibody, V domains shown)
VH: EVQLVESGGGLVQPGRSLRLSCAASGFTFNDYAMHWVRQAPGKGLEWVSTISWNSGSIGYADSVKGRFTISRDNAKKSLYLQMNSLRAEDTALYYCAKDIQYGNYYYGMDVWGQGTTVTVSS
VL: EIVLTQSPATLSLSPGERATLSCRASQSVSSYLAWYQQKPGQAPRLLIYDASNRATGIPARFSGSGSGTDFTLTISSLEPEDFAVYYCQQRSNWPITFGQGTRLEIK
modifications: FITC- or 125I-labelled in some assays; F(ab')2 fragments in some; the letters do not carry this
notes: Human monoclonal IgG1,κ from hybridoma; also called 4C9; HuMab 2F2 (hybridoma-derived)

Tests used:
[1] = target: T1, IPAGIYA (also: covalently linked to polyethylene card); experiment: Pepscan ELISA, 10 µg/ml
T1 construct: 7-mer Pepscan peptide derived from human CD20
T1 peptide: IPAGIYA
Excerpt: (§1) In some cases chemical linkage of the legs of a 15-mer peptide helps to identify amino acid sequences of a potentially discontinuous epitope. […] The 9- and 15-mers were synthesized as loops and screened using credit-card format mini-PEPSCAN cards (455 peptide format/card). In all looped peptides amino acids at varied positions were replaced by a cysteine (e.g., acetyl-XCXXXXXXXXCX-minicard). The peptides were synthesized using standard Fmoc-chemistry and deprotected using TFA with scavengers. Subsequently, the deprotected peptides were reacted on the microarray with an 0.5 mM solution of 1,3-bis(bromomethyl)-benzene in ammonium bicarbonate (20 mM, pH 7.9), supplemented with acetonitrile (1:1 (v/v)). The microarrays were gently shaken in the solution for 30-60 min, while completely covered in the solution. Finally, the microarrays were washed extensively with excess of Millipore H₂O and sonicated in disrupt-buffer containing 1% sodium dodecylsulfate, 0.1% β-mercaptoethanol, in PBS (pH 7.2) at 70° C. for 30 min, followed by sonication in millipore H₂O for another 45 min. Subsequently, the microwells were ready for screening in an ELISA-assay.
(§2) […] After washing, the peptides were incubated with anti-human antibody peroxidase (dilution 1:1000, 1 hour, 25° C.), and after washing the peroxidase substrate, 2,2′-azino-di-3-ethylbenzthiazolin sulfonate and 2 μl/ml 3% H₂O₂ were added. After one hour, the color development was measured. The color development of the ELISA was quantified with a CCD-camera and an image processing system.

[2] = target: T2, ICIYNAEPANPSECN (linker 2-14 via 1,3‑bis(bromomethyl)‑benzene (inferred); reading uncertain); experiment: Pepscan ELISA, 10 µg/ml
T2 construct: 15-mer looped Pepscan peptide derived from human CD20, Cys put in at two positions
T2 peptide: Ac-ICIYNAEPANPSECN-minicard
Excerpt: as §1, §2

[3] = target: T3, YCAEPANPSEKNSCS (linker 2-14 via 1,3‑bis(bromomethyl)‑benzene (inferred); reading uncertain); experiment: Pepscan ELISA, 10 µg/ml
T3 construct: 15-mer looped Pepscan peptide derived from human CD20, Cys put in at two positions
T3 peptide: Ac-YCAEPANPSEKNSCS-minicard
Excerpt: as §1, §2

[4] = target: T4, YCNIYNAEPANPSCK (linker 2-14 via mXylylene; reading uncertain); experiment: Pepscan ELISA, 10 µg/ml
T4 construct: 15-mer looped Pepscan peptide derived from human CD20, Cys put in at two positions
T4 peptide: Ac-YCNIYNAEPANPSCK-minicard
Excerpt: as §1, §2

[5] = target: T5, NCYNAEPANPSEKCS (linker 2-14 via 1,3‑bis(bromomethyl)‑benzene (inferred); reading uncertain); experiment: Pepscan ELISA, 10 µg/ml
T5 construct: 15-mer looped Pepscan peptide derived from human CD20, Cys put in at two positions
T5 peptide: Ac-NCYNAEPANPSEKCS-minicard
Excerpt: as §1, §2

[6] = target: T6, ACPANPSEKNSPSCQ (linker 2-14 via 1,3‑bis(bromomethyl)‑benzene (inferred); reading uncertain); experiment: Pepscan ELISA, 10 µg/ml
T6 construct: 15-mer looped Pepscan peptide derived from human CD20, Cys put in at two positions
T6 peptide: Ac-ACPANPSEKNSPSCQ-minicard
Excerpt: as §1, §2

[7] = target: T7, LKMECLNFIRCHTPY (linker 5-11 via 1,3‑bis(bromomethyl)‑benzene (inferred); reading uncertain); experiment: Pepscan ELISA, 10 µg/ml
T7 construct: 15-mer looped Pepscan peptide derived from human CD20, Cys put in at two positions
T7 peptide: Ac-LKMECLNFIRCHTPY-minicard
Excerpt: as §1, §2

[8] = target: T8, GIYAPIA (also: covalently linked to polyethylene card); experiment: Pepscan ELISA, 10 µg/ml
T8 construct: 7-mer Pepscan peptide derived from human CD20 (A in place of the C of GIYAPIC)
T8 peptide: GIYAPIA
Excerpt: as §1, §2

[9] = target: T9, NCEPANPSEKNSPCT (linker 2-14 via 1,3‑bis(bromomethyl)‑benzene (inferred); reading uncertain); experiment: Pepscan ELISA, 10 µg/ml
T9 construct: 15-mer looped Pepscan peptide derived from human CD20, Cys put in at two positions
T9 peptide: Ac-NCEPANPSEKNSPCT-minicard
Excerpt: as §1, §2

[10] = target: T10, PAGIYAP (also: covalently linked to polyethylene card); experiment: Pepscan ELISA, 100 µg/ml
T10 construct: 7-mer Pepscan peptide derived from human CD20
T10 peptide: PAGIYAP
Excerpt: as §1, §2

[11] = target: T11, KMECLNFIRAHCPYI (linker 4-12 via 1,3‑bis(bromomethyl)‑benzene (inferred); reading uncertain); experiment: Pepscan ELISA, 100 µg/ml
T11 construct: 15-mer looped Pepscan peptide derived from human CD20, Cys put in at two positions
T11 peptide: Ac-KMECLNFIRAHCPYI-minicard
Excerpt: as §1, §2

[12] = target: T12, IYAPIAV (also: covalently linked to polyethylene card); experiment: Pepscan ELISA, 100 µg/ml
T12 construct: 7-mer Pepscan peptide derived from human CD20 (A in place of the C of IYAPICV)
T12 peptide: IYAPIAV
Excerpt: as §1, §2

[13] = target: T13, CFIRAHTPC (linker 1-9 via 1,3‑bis(bromomethyl)‑benzene (inferred); not fully specified (C-terminus); also: covalently linked to minicard); experiment: Pepscan ELISA, 100 µg/ml
T13 construct: 9-mer looped Pepscan peptide derived from human CD20
T13 peptide: CFIRAHTPC
Excerpt: as §1, §2

[14] = target: T14, CRAHTPYIC (linker 1-9 via 1,3‑bis(bromomethyl)‑benzene (inferred); not fully specified (C-terminus); also: covalently linked to minicard); experiment: Pepscan ELISA, 100 µg/ml
T14 construct: 9-mer looped Pepscan peptide derived from human CD20
T14 peptide: CRAHTPYIC
Excerpt: as §1, §2

[15] = target: T15, IYAPICV (also: covalently linked to polyethylene card); experiment: Pepscan ELISA, 100 µg/ml
T15 construct: 7-mer Pepscan peptide derived from human CD20
T15 peptide: IYAPICV
Excerpt: as §1, §2

[16] = target: T16, AGIYAPI (also: covalently linked to polyethylene card); experiment: Pepscan ELISA, 100 µg/ml
T16 construct: 7-mer Pepscan peptide derived from human CD20
T16 peptide: AGIYAPI
Excerpt: as §1, §2

[17] = target: T17, MESLCFIRAHCPYIN (linker 5-11 via 1,3‑bis(bromomethyl)‑benzene (inferred); reading uncertain); experiment: Pepscan ELISA, 100 µg/ml
T17 construct: 15-mer looped Pepscan peptide derived from human CD20, Cys put in at two positions
T17 peptide: Ac-MESLCFIRAHCPYIN-minicard
Excerpt: as §1, §2

[18] = target: T18, GIYAPIC (also: covalently linked to polyethylene card); experiment: Pepscan ELISA, 100 µg/ml
T18 construct: 7-mer Pepscan peptide derived from human CD20
T18 peptide: GIYAPIC
Excerpt: as §1, §2

[19] = target: T19, CIRAHTPYC (linker 1-9 via 1,3‑bis(bromomethyl)‑benzene (inferred); not fully specified (C-terminus); also: covalently linked to minicard); experiment: Pepscan ELISA, 100 µg/ml
T19 construct: 9-mer looped Pepscan peptide derived from human CD20
T19 peptide: CIRAHTPYC
Excerpt: as §1, §2

[20] = target: T20, CAHTPYINC (linker 1-9 via 1,3‑bis(bromomethyl)‑benzene (inferred); not fully specified (C-terminus); also: covalently linked to minicard); experiment: Pepscan ELISA, 100 µg/ml
T20 construct: 9-mer looped Pepscan peptide derived from human CD20
T20 peptide: CAHTPYINC
Excerpt: as §1, §2

[21] = target: T7, LKMECLNFIRCHTPY; experiment: Pepscan ELISA, 100 µg/ml
Excerpt: as §1, §2

[22] = target: T8, GIYAPIA; experiment: Pepscan ELISA, 100 µg/ml
Excerpt: as §1, §2

[23] = target: T21, KMESCNFIRACTPYI (linker 5-11 via 1,3‑bis(bromomethyl)‑benzene (inferred); reading uncertain); experiment: Pepscan ELISA, 100 µg/ml
T21 construct: 15-mer looped Pepscan peptide derived from human CD20, Cys put in at two positions
T21 peptide: Ac-KMESCNFIRACTPYI-minicard
Excerpt: as §1, §2

Binder | OD (absorbance) [1] [OD] | OD (absorbance) [2] [OD] | OD (absorbance) [3] [OD] | OD (absorbance) [4] [OD] | OD (absorbance) [5] [OD] | OD (absorbance) [6] [OD] | OD (absorbance) [7] [OD] | OD (absorbance) [8] [OD] | OD (absorbance) [9] [OD] | OD (absorbance) [10] [OD] | OD (absorbance) [11] [OD] | OD (absorbance) [12] [OD] | OD (absorbance) [13] [OD] | OD (absorbance) [14] [OD] | OD (absorbance) [15] [OD] | OD (absorbance) [16] [OD] | OD (absorbance) [17] [OD] | OD (absorbance) [18] [OD] | OD (absorbance) [19] [OD] | OD (absorbance) [20] [OD] | also measured
B1 | 217 | 138 | 106 | 287 | 93 | 146 | 165 | 172 | 159 | 2500 | 3000 | 654 | 534 | 1600 | 313 | 2210 | 956 | 251 | 449 | 452 | OD (absorbance) [21]: 738 OD; OD (absorbance) [22]: 857 OD; OD (absorbance) [23]: 3090 OD
B2 | 164 | 192 | 188 | 181 | 121 | 148 | 160 | 177 | 183 | 64 | 41 | 58 | 69 | 64 | 58 | 73 | 55 | 64 | 60 | 65 | OD (absorbance) [21]: 41 OD; OD (absorbance) [22]: 96 OD; OD (absorbance) [23]: 52 OD
B3 | 48 | 78 | 65 | 86 | 49 | 77 | 49 | 62 | 61 | 85 | 66 | 76 | 114 | 87 | 99 | 98 | 65 | 93 | 92 | 106 | OD (absorbance) [21]: 87 OD; OD (absorbance) [22]: 96 OD; OD (absorbance) [23]: 78 OD
